# Measured values as given in patent publication US20210130436A1 (published 2021).
# Changes are numbered by the printed parent chain. Numbers in names are those of the source.
# B1: variant CD80 IgV-Fc E35D/M47L/A71G/L97Q (Fc fusion, not shown: a dimerising Fc or GST)
# chain: VIHVTKEVKEVATLSCGHNVSVEELAQTRIYWQKDKKMVLTMMSGDLNIWPEYKNRTIFDITNNLSIVILGLRPSDEGTYECVVLKYEKDAFKREHQAEVTLSVKAD
# B2: CD80 E35D/M47V/N48K/V68M/K89N IgV-Fc, GS(G4S)5 linker (Fc fusion, not shown: a dimerising Fc or GST)
# chain: VIHVTKEVKEVATLSCGHNVSVEELAQTRIYWQKDKKMVLTMMSGDVKIWPEYKNRTIFDITNNLSIMILALRPSDEGTYECVVLKYENDAFKREHLAEVTLSVKADGSGGGGSGGGGSGGGGSGGGGSGGGGS
# B3: variant CD80 IgV-Fc Q33R/E35D/M38I/M47L/V68M (Fc fusion, not shown: small tags and cut ends; a dimerising Fc or GST)
# chain: B1 chain with Q33R, M38I, V68M, G71A, Q97L
# B4: variant CD80 IgV-Fc E35D/M47L/V68M/E95V/L97Q (Fc fusion, not shown: small tags and cut ends; a dimerising Fc or GST)
# chain: B1 chain with V68M, G71A, E95V
# B5: variant CD80 IgV-Fc E24D/E35D/M47L/V68M/E95V/L97Q (Fc fusion, not shown: small tags and cut ends; a dimerising Fc or GST)
# chain: B1 chain with E24D, V68M, G71A, E95V
# B6: variant CD80 IgV-Fc Q27L/Q33L/E35D/T41S/M47V/N48K/V68M/L85M (Fc fusion, not shown: small tags and cut ends; a dimerising Fc or GST)
# chain: B1 chain with Q27L, Q33L, T41S, L47V, N48K, V68M, G71A, L85M, Q97L
# B7: variant CD80 IgV-Fc E35D/D46E/M47L/V68M/T79M/L85M/L97Q (Fc fusion, not shown: small tags and cut ends; a dimerising Fc or GST)
# chain: B1 chain with D46E, V68M, G71A, T79M, L85M
# B8: H18Y/E35D/M47I/V68M/A71G/R94L CD80 IgV-Fc (Fc fusion, not shown: a dimerising Fc or GST)
# chain: B1 chain with H18Y, L47I, V68M, R94L, Q97L
# Target: T1, human CD28, endogenously expressed on Jurkat/IL2 reporter cells (human, UniProt P10747 19-220)
# T1 construct: This is the endogenous CD28 of Jurkat cells
# Test: flow cytometry, Jurkat/IL2 reporter cells (endogenous CD28), 33.3 nM Fc fusion, PE anti-human Fc
row,Binder,MFI at 33.3 nM
1,B1,300 MFI

# Target: T2, human PD-L1 (human, UniProt Q9NZQ7 19-290)
# T2 construct: also called huPD-L1; CD274
# Test: flow cytometry on CHO cells stably expressing PD-L1
# T2 sequence (Q9NZQ7 19-290): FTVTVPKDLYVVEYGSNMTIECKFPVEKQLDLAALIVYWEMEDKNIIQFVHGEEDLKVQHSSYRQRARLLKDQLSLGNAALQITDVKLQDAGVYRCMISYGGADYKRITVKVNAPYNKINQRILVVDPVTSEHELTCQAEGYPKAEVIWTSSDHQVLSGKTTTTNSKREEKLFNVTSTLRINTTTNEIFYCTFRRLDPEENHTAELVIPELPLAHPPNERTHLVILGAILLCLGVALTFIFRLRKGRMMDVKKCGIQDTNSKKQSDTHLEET
row,Binder,MFI at 33.3 nM
1,B2,22700 MFI

# Target: T3, human CTLA4 (huCTLA4), full-length, stably expressed on CHO cells (human, UniProt P16410 36-223)
# T3 construct: whole, on cells
# T3 sequence (P16410 36-223): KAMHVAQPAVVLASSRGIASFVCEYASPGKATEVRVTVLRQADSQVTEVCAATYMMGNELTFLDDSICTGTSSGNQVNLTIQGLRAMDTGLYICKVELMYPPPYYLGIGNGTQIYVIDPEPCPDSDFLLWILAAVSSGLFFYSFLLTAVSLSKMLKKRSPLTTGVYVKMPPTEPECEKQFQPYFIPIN
# Test: flow cytometry, CHO cells expressing huCTLA4
row,Binder,MFI at 33.3 nM
1,B3,107 MFI
2,B4,15000 MFI
3,B5,15500 MFI
4,B6,178 MFI
5,B7,96 MFI

# Target: T4, human PD-L1 (huPD-L1), full-length, stably expressed on CHO cells (human, UniProt Q9NZQ7 19-290)
# T4 construct: whole, on cells
# T4 sequence (Q9NZQ7 19-290): as the sequence (Q9NZQ7 19-290) above
# Test: flow cytometry, CHO cells expressing huPD-L1
row,Binder,MFI at 33.3 nM
1,B3,16500 MFI
2,B4,18600 MFI
3,B5,18600 MFI
4,B6,16500 MFI
5,B7,4620 MFI

# Target: T4, human PD-L1 (huPD-L1), full-length, …
# Test: flow cytometry; MFI on PD-L1 CHO cells over MFI on Jurkat cells (CD28)
row,Binder,Ratio of PDL1:CD28
1,B3,1110 ratio
2,B4,1300 ratio
3,B5,1270 ratio
4,B6,1130 ratio
5,B7,325 ratio

# Target: T5, human CTLA-4 (CTLA4), full-length, expressed on the surface of CHO cells (human, UniProt P16410 36-223)
# T5 construct: also called huCTLA4
# T5 sequence (P16410 36-223): as the sequence (P16410 36-223) above
# Test: flow cytometry, CHO cells stably expressing human CTLA-4, 33.3 nM Fc fusion, PE anti-human Fc
row,Binder,MFI at 33.3 nM
1,B1,226000 MFI

# Target: T3, human CTLA4 (huCTLA4), full-length, …
# Test: flow cytometry, CHO cells expressing huCTLA4; MFI against WT CD80 of the table
row,Binder,Fold change to WT CD80
1,B3,0.1 fold
2,B4,8.5 fold
3,B5,8.8 fold
4,B6,0.1 fold
5,B7,0.1 fold

# Target: T6, human CD28 (human, UniProt P10747 19-220)
# T6 construct: whole, on cells; Endogenous CD28 of Jurkat/IL2 reporter cells
# Test: flow cytometry, Jurkat/IL2 reporter cells (endogenous CD28), 33.3 nM, PE anti-human Fc
row,Binder,MFI at 33.3 nM
1,B8,1900 MFI

# Target: T4, human PD-L1 (huPD-L1), full-length, …
# Test: flow cytometry, CHO cells expressing huPD-L1; MFI against WT CD80 of the table
row,Binder,Fold change to WT CD80
1,B3,320 fold
2,B4,361 fold
3,B5,362 fold
4,B6,320 fold
5,B7,89.7 fold

# Target: T7, human PD-L1 (human, UniProt Q9NZQ7 19-290)
# T7 construct: whole, on cells; also called huPD-L1
# Test: flow cytometry, CHO cells stably expressing huPD-L1, 33.3 nM, PE anti-human Fc
# T7 sequence (Q9NZQ7 19-290): as the sequence (Q9NZQ7 19-290) above
row,Binder,MFI at 33.3 nM
1,B8,14500 MFI
